Reference: PMC5073337

Assays:
[1] = biological target: SUMO2ΔGG, diglycine-deficient mouse SUMO2 mutant, adenovirally overexpressed (mouse) (UniProt P61957); experiment: proximity ligation; fixed NRVCM; primary antibodies against SUMO2/3 (Abcam, mouse) and CnA (Upstate, rabbit); cells infected with Ad LacZ, Ad S2 or Ad S2ΔGG with or without Ad ΔCnA; read-out: percentage of PLA-positive nuclei
[2] = biological target: SUMO2, full-length mouse, adenovirally overexpressed (mouse) (UniProt P61957); experiment: as above

increase of PLA signal on overexpression [1] [%]	increase of PLA signal on overexpression [2] [%]	PLA signal (percent) [1] [%]	PLA signal (percent) [2] [%]	Substance
17	14			calcineurin A (endogenous, rat) (from UniProt P63329 1-521) (natural protein)
		54	64	constitutively active calcineurin A (from UniProt P63328 1-521) (enzyme)
